In patent US5614198A, “Bowman-Birk Inhibitor compositions for treatment of inflammatory disease” (The Trustees of the University of Pennsylvania, priority 1995, dated 1997):
“Also recorded” adds a separate entry of the source.

Assays:
[1] = system: proteolytic activity in colon mucosa; assay: proteolytic activity in colon mucosal biopsy samples of DMH-treated rats (MCA substrates); format: in vivo, rat; conditions: for levels of proteolytic activity in colon mucosa of DMH-exposed animals: one month after last DMH dose, 0.1% dietary BBIC, FIG. 5; for Protease Activity/μg protein, Glt-Gly-Arg-MCA, Mean / Protease Activity/μg protein, Boc-Val-Leu-Lys-MCA, Mean / Protease Activity/μg protein, Boc-Val-Pro-Arg-MCA, Mean: rat colon biopsy one month after last DMH injection (total 80 mg/kg), 0.1% dietary inhibitor where given, 1 animal, 3 samples; for Protease Activity/μg protein, Glt-Gly-Arg-MCA, Mean: control 1.21; for Protease Activity/μg protein, Boc-Val-Leu-Lys-MCA, Mean: control 3.07; for Protease Activity/μg protein, Boc-Val-Pro-Arg-MCA, Mean: control 15.97
Experimental: The levels of proteolytic activity were determined as following. Colon mucosal biopsy samples were thawed on ice and homogenized in ice-cold PBS in a sterile teflon-glass homogenizer. The level of proteolytic activity was measured by incubating aliquots of sample in 0.1M Tris (pH 7.5)-5 mM CaC12, with each of the following synthetic substrates: Boc-Val-Pro-Arg-MCA; Boc-Val-Leu-Lys-MCA; and Glt-Gly-Arg-MCA (Peninsula Laboratories, Inc., Belmont, Calif.). These substrates were selected since it is known that the proteolytic activity cleaving these substrates is affected by BBI. After a 2 hour incubation at 37° C., the reaction was terminated by dilution with 1.8 ml distilled H2 O. Release of the fluorescent reporter group, amino-methyl coumarin, was determined spectrophotometrically at excitation and emission wavelengths of 380 and 460 nm, respectively. […] Data were standardized on the basis of protein content and expressed as proteolytic activity/μg protein.
In these studies, animals were untreated or treated twice weekly for three weeks with DMH. […] One group of treated animals was also exposed to 0.1% dietary BBIC during and after the DMH injection period. Animals were killed one month after the last DMH injection was given. Colon biopsy samples were obtained and proteolytic activity levels were determined as described for the human mucosal biopsy samples.

[2] = system: TPA-activated polymorphonuclear leukocytes (PMNs); conditions: TPA-activated human PMNs (Frenkel et al.); cited from earlier work
[3] = system: DMH-induced colon and liver carcinogenesis; conditions: 0.5% of the diet or less (St. Clair et al.); cited from earlier work
[4] = system: cells of patients with Bloom's syndrome; conditions: Kennedy et al., 1984; cited from earlier work
C3H10T1/2 cells = conditions: Yavelow et al., 1985; cited from earlier work
trypsin = assay: gelatin zymogram, trypsin control lanes; format: biochemical; conditions: 10 μg/ml; 5 ng trypsin; lanes 4 and 6 vs lane 1
Experimental: BBI or BBIC (at 10 μg/ml) was added to some of the biopsy sample homogenates and protease activity was analyzed on gelatin zymograms. The same rat colon sample from a 14 day DNBS/ethanol treated rat was used for the protease/zymogram analyses. The gel was run at 200 V for 40 minutes and was then cut into pieces. Each gel/column was treated as follows: 1) Control-contained 5 ng trypsin; 2) UC sample incubated in Tris at pH 8.0; 3) UC sample incubated in Tris at pH 8.0 with BBI added to achieve a final concentration of 10 μg/ml; 4) Control-contained 5 ng trypsin with BBI added to achieve a final concentration of 10 μg/ml; 5) UC sample incubated in Tris at pH 8.0 with BBIC added to achieve a final concentration of 10 μg/ml; 6) Control-contained 5 ng trypsin with BBIC added to achieve a final concentration of 10 μg/ml.
Twelve percent sodium diodecyl sulfate (SDS) polyacrylamide gels of 0.75 mm thickness were prepared containing 0.1% gelatin. A 2% gelatin stock was prepared in advance by dissolving gelatin in warm distilled water. Samples were placed in the gel wells in standard SDS-gel-loading buffer that contained 0.1% SDS but lacked beta-mercaptoethanol. They were not boiled prior to loading. The gels were run at 200 V for 40 minutes in a Bio-Rad Mini Protean II apparatus and then soaked in distilled water containing 2% Triton X-100 on a gyrorotary shaker for 15 minutes at 20° C. […]

With CNNC [DMH, dimethylhydrazine, reference compound] the “levels of proteolytic activity in colon mucosa of DMH-exposed animals” value [1] was “highly significant elevation”, the “Protease Activity/μg protein, Glt-Gly-Arg-MCA, Mean” value [1] was 6.15 RFU/hr/Ag protein and the “Protease Activity/μg protein, Boc-Val-Leu-Lys-MCA, Mean” value [1] was 10.15 RFU/hr/Ag protein. For the same molecule, the “Protease Activity/μg protein, Boc-Val-Pro-Arg-MCA, Mean” value [1] was 43.43 RFU/hr/Ag protein.

B1: COI: chicken ovoinhibitor (protein, UniProt P10184 1-517, looked up)
Ovoinhibitor: MTDWVLHHKVGPLDMTTRYIFPLLPLPFLPHSESKRAVCAPRCSAMRTARQFVQVALALCCFADIAFGIEVNCSLYASGIGKDGTSWVACPRNLKPVCGTDGSTYSNECGICLYNREHGANVEKEYDGECRPKHVTIDCSPYLQVVRDGNTMVACPRILKPVCGSDSFTYDNECGICAYNAEHHTNISKLHDGECKLEIGSVDCSKYPSTVSKDGRTLVACPRILSPVCGTDGFTYDNECGICAHNAEQRTHVSKKHDGKCRQEIPEIDCDQYPTRKTTGGKLLVRCPRILLPVCGTDGFTYDNECGICAHNAQHGTEVKKSHDGRCKERSTPLDCTQYLSNTQNGEAITACPFILQEVCGTDGVTYSNDCSLCAHNIELGTSVAKKHDGRCREEVPELDCSKYKTSTLKDGRQVVACTMIYDPVCATNGVTYASECTLCAHNLEQRTNLGKRKNGRCEEDITKEHCREFQKVSPICTMEYVPHCGSDGVTYSNRCFFCNAYVQSNRTLNLVSMAAC
In the case of B1, the “order of activity, inhibition of H2O2 formation” value [2] is given as “PtI-1≥PCI-2>PtI-2>COI>BBI>TOOI>LBI>SBTI”.

B2: BBI: protease inhibitor derived from soybeans; 71 amino acid chain with 7 disulfide bonds, molecular weight approximately 8000 (protein, UniProt P01055 40-110, looked up)
Bowman-Birk type proteinase …: DDESSKPCCDQCACTKSNPPQCRCSDMRLNSCHSACKSCICALSYPAQCFCVDITDFCYEPCKPSEDDKEN
In the case of B2, the “effect upon the health of the mice” value [3] is listed as “no adverse effect upon the health of the mice”, the “levels of chromosome abnormalities” value [4] is listed as “reduce the levels of chromosome abnormalities” and the “radiation induced transformation in C3H10T1/2 cells” value (C3H10T1/2 cells) is listed as “suppresses radiation induced transformation in C3H10T1/2 cells”. The “levels of proteolytic activity in colon mucosa of DMH-exposed animals” value [1] was “not significantly different from control animals; also recorded: reduction in levels of these proteolytic activities”, the “Protease Activity/μg protein, Glt-Gly-Arg-MCA, Mean” value [1] was 0.81 RFU/hr/Ag protein and the “Protease Activity/μg protein, Boc-Val-Leu-Lys-MCA, Mean” value [1] was 1.96 RFU/hr/Ag protein. The “Protease Activity/μg protein, Boc-Val-Pro-Arg-MCA, Mean” value [1] was 22.22 RFU/hr/Ag protein, the “inhibition of proteolytic activity of trypsin” value (trypsin) was “effectively inhibit the proteolytic activity of trypsin” and the “order of activity, inhibition of H2O2 formation” value [2] was “PtI-1≥PCI-2>PtI-2>COI>BBI>TOOI>LBI>SBTI”.

B3: SBTI: soybean (Kunitz) trypsin inhibitor (protein, UniProt P01070 25-205, looked up)
Trypsin inhibitor A: DFVLDNEGNPLENGGTYYILSDITAFGGIRAAPTGNERCPLTVVQSRNELDKGIGTIISSPYRIRFIAEGHPLSLKFDSFAVIMLCVGIPTEWSVVEDLPEGPAVKIGENKDAMDGWFRLERVSDDEFNNYKLVFCPQQAEDDKCGDIGISIDHDDGTRRLVVSKNKPLVVQFQKLDKESL
In the case of B3, the “order of activity, inhibition of H2O2 formation” value [2] is given as “PtI-1≥PCI-2>PtI-2>COI>BBI>TOOI>LBI>SBTI”.
